Reference: the supplement of paper PMC10065799, “High-throughput profiling of sequence recognition by tyrosine kinases and SH2 domains using bacterial peptide display” (eLife, 2023)

Molecular target: Grb2 SH2 (UniProt P62993)
Test: SH2 binding enrichment of the phosphorylated peptide, bacterial display (enrichment ratio); higher = better substrate or ligand; peptides without Tyr show the background
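Wherever SH2 binding enrichment of the phosphorylated peptide, bacterial display is given: peptide library displayed on the E. coli surface as eCPX fusions, selected cells deep-sequenced, score is each peptide's frequency after selection divided by its frequency in the input.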
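Wherever phosphorylation enrichment, bacterial display is given: 11-residue human phosphosite peptides and single-mutation variants displayed on the E. coli surface, counted by deep sequencing, each peptide's frequency after selection divided by its frequency in the unselected input library; frequency after pTyr selection over input frequency; kinase dosed for 20-30% of maximal phosphorylation in three min.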

Sequence of Grb2 SH2 (P62993 whole entry, looked up): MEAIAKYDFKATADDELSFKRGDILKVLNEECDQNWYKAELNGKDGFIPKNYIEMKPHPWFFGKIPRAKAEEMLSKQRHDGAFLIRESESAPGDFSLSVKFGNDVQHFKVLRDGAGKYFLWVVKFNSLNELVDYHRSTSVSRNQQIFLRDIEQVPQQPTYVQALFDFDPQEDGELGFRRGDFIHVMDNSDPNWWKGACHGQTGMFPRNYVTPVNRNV

In order of falling SH2 binding enrichment:
1. IRKDLYANNVL [ACTA2_Y296]  1.23
2. EFISENCGEII [EZH2_Y641_Y641N]  1.05
3. KQRSDYARELE [MYH3_Y1140]  1.01
4. TSFSGYRCHRH [NKAPL_Y94_Y96C_YF]  1.01
5. TRNVRYLTLDI [AKR1C2_Y305_N300T]  0.985
6. DVVKDCAFVHM [RBM14_Y114_Y114C]  0.971
7. MCITQYERESQ [PRNP_Y218]  0.935
8. AFDNLYFWDQD [ERBB2_Y1221_YF]  0.865
9. FTYDPYSEEDP [IL2RB_Y387]  0.851
10. SGSWSYNTSTE [SELE_Y24_A21S]  0.826
11. AELVRYFMEHH [PTPN11_Y80_Q79R_YF]  0.807
12. VATRWYRSPEP [CDKL5_Y177_L182P]  0.796
13. DRIVNYSRASI [ATP7A_Y1459]  0.768
14. SENAFYLSPDI [COL6A3_Y2827]  0.739
15. QTEGEYSSLEH [IDH3B_Y171]  0.71
16. TTIVSYRASQP [MKI67_Y1737_K1734I]  0.688

Molecular target: SHP2-C SH2
Test: as above

In order of falling SH2 binding enrichment:
1. TRNVRYLTLDI [AKR1C2_Y305_N300T]  6.49
2. TSFSGYRCHRH [NKAPL_Y94_Y96C_YF]  0.901
3. DRIVNYSRASI [ATP7A_Y1459]  0.88
4. KQRSDYARELE [MYH3_Y1140]  0.859
5. DVVKDCAFVHM [RBM14_Y114_Y114C]  0.811
6. TTIVSYRASQP [MKI67_Y1737_K1734I]  0.74
7. EFISENCGEII [EZH2_Y641_Y641N]  0.714
8. SENAFYLSPDI [COL6A3_Y2827]  0.698
9. FTYDPYSEEDP [IL2RB_Y387]  0.694
10. QTEGEYSSLEH [IDH3B_Y171]  0.634
11. MCITQYERESQ [PRNP_Y218]  0.632
12. AELVRYFMEHH [PTPN11_Y80_Q79R_YF]  0.632
13. VATRWYRSPEP [CDKL5_Y177_L182P]  0.629
14. IRKDLYANNVL [ACTA2_Y296]  0.614
15. AFDNLYFWDQD [ERBB2_Y1221_YF]  0.59
16. SGSWSYNTSTE [SELE_Y24_A21S]  0.565

Molecular target: c-Src SH2
Test: as above

In order of falling SH2 binding enrichment:
1. TRNVRYLTLDI [AKR1C2_Y305_N300T]  1.73
2. QTEGEYSSLEH [IDH3B_Y171]  0.721
3. TSFSGYRCHRH [NKAPL_Y94_Y96C_YF]  0.661
4. AELVRYFMEHH [PTPN11_Y80_Q79R_YF]  0.625
5. EFISENCGEII [EZH2_Y641_Y641N]  0.62
6. MCITQYERESQ [PRNP_Y218]  0.591
7. IRKDLYANNVL [ACTA2_Y296]  0.569
8. FTYDPYSEEDP [IL2RB_Y387]  0.555
9. SGSWSYNTSTE [SELE_Y24_A21S]  0.55
10. TTIVSYRASQP [MKI67_Y1737_K1734I]  0.532
11. DVVKDCAFVHM [RBM14_Y114_Y114C]  0.523
12. KQRSDYARELE [MYH3_Y1140]  0.512
13. DRIVNYSRASI [ATP7A_Y1459]  0.498
14. AFDNLYFWDQD [ERBB2_Y1221_YF]  0.495
15. SENAFYLSPDI [COL6A3_Y2827]  0.475
16. VATRWYRSPEP [CDKL5_Y177_L182P]  0.422

Molecular target: FGFR1 (UniProt P11362)
Test: phosphorylation enrichment, bacterial display (enrichment ratio); higher = better substrate or ligand; peptides without Tyr show the background

Sequence of FGFR1 (P11362 whole entry, looked up): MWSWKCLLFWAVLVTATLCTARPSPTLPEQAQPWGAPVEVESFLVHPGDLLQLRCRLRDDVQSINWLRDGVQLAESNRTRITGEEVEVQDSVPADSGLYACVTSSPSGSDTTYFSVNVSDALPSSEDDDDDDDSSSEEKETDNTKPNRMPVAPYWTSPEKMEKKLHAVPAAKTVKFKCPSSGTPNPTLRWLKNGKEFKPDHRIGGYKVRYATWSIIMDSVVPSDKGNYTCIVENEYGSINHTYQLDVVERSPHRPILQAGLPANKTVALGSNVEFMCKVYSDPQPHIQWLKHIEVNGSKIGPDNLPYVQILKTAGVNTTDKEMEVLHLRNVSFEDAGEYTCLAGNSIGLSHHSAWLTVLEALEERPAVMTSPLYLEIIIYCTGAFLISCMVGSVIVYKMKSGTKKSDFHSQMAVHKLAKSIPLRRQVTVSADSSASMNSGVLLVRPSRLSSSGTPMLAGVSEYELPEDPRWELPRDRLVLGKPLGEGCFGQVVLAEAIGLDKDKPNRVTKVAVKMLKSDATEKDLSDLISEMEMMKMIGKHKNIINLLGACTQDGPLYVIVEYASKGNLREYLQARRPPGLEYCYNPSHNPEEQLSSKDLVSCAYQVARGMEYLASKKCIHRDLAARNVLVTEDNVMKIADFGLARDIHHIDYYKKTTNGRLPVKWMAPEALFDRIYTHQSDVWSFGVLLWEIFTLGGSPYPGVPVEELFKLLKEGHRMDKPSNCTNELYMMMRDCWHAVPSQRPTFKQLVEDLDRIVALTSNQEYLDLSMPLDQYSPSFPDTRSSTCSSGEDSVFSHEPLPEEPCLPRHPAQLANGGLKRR

In order of rising phosphorylation enrichment:
1. KQRSDYARELE [MYH3_Y1140]  0.331
2. IRKDLYANNVL [ACTA2_Y296]  0.421
3. TRNVRYLTLDI [AKR1C2_Y305_N300T]  0.421
4. DRIVNYSRASI [ATP7A_Y1459]  0.423
5. TTIVSYRASQP [MKI67_Y1737_K1734I]  0.441
6. AELVRYFMEHH [PTPN11_Y80_Q79R_YF]  0.454
7. VATRWYRSPEP [CDKL5_Y177_L182P]  0.482
8. EFISENCGEII [EZH2_Y641_Y641N]  0.487
9. MCITQYERESQ [PRNP_Y218]  0.491
10. FTYDPYSEEDP [IL2RB_Y387]  0.503
11. SGSWSYNTSTE [SELE_Y24_A21S]  0.527
12. TSFSGYRCHRH [NKAPL_Y94_Y96C_YF]  0.552
13. DVVKDCAFVHM [RBM14_Y114_Y114C]  0.573
14. SENAFYLSPDI [COL6A3_Y2827]  0.762
15. QTEGEYSSLEH [IDH3B_Y171]  0.995
16. AFDNLYFWDQD [ERBB2_Y1221_YF]  6.87

Molecular target: Hck (UniProt P08631)
Test: as above

Sequence of Hck (P08631 whole entry, looked up): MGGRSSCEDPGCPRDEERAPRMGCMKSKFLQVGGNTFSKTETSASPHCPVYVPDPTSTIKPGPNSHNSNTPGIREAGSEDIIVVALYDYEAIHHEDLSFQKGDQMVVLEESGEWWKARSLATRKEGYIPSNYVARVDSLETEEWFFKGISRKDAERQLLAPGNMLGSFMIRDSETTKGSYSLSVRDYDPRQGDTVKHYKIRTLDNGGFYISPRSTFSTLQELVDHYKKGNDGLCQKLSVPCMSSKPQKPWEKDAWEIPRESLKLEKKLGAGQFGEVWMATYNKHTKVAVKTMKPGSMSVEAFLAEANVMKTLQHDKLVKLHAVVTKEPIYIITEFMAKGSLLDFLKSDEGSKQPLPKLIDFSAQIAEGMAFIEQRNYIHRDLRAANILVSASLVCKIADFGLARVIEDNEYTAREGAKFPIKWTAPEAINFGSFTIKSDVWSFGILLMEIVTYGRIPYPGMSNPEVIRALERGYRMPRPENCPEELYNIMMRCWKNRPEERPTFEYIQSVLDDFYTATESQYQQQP

In order of rising phosphorylation enrichment:
1. KQRSDYARELE [MYH3_Y1140]  0.393
2. DRIVNYSRASI [ATP7A_Y1459]  0.405
3. VATRWYRSPEP [CDKL5_Y177_L182P]  0.431
4. MCITQYERESQ [PRNP_Y218]  0.447
5. IRKDLYANNVL [ACTA2_Y296]  0.45
6. AELVRYFMEHH [PTPN11_Y80_Q79R_YF]  0.46
7. TSFSGYRCHRH [NKAPL_Y94_Y96C_YF]  0.469
8. TTIVSYRASQP [MKI67_Y1737_K1734I]  0.481
9. DVVKDCAFVHM [RBM14_Y114_Y114C]  0.486
10. TRNVRYLTLDI [AKR1C2_Y305_N300T]  0.487
11. EFISENCGEII [EZH2_Y641_Y641N]  0.495
12. SGSWSYNTSTE [SELE_Y24_A21S]  0.536
13. SENAFYLSPDI [COL6A3_Y2827]  0.687
14. FTYDPYSEEDP [IL2RB_Y387]  1.01
15. QTEGEYSSLEH [IDH3B_Y171]  1.04
16. AFDNLYFWDQD [ERBB2_Y1221_YF]  4.26

Tested on: c-Src
Test: as above

In order of rising phosphorylation enrichment:
1. KQRSDYARELE [MYH3_Y1140]  0.362
2. DRIVNYSRASI [ATP7A_Y1459]  0.37
3. TRNVRYLTLDI [AKR1C2_Y305_N300T]  0.384
4. DVVKDCAFVHM [RBM14_Y114_Y114C]  0.384
5. VATRWYRSPEP [CDKL5_Y177_L182P]  0.394
6. MCITQYERESQ [PRNP_Y218]  0.394
7. TSFSGYRCHRH [NKAPL_Y94_Y96C_YF]  0.414
8. EFISENCGEII [EZH2_Y641_Y641N]  0.423
9. IRKDLYANNVL [ACTA2_Y296]  0.429
10. AELVRYFMEHH [PTPN11_Y80_Q79R_YF]  0.433
11. SGSWSYNTSTE [SELE_Y24_A21S]  0.503
12. TTIVSYRASQP [MKI67_Y1737_K1734I]  0.539
13. SENAFYLSPDI [COL6A3_Y2827]  0.607
14. QTEGEYSSLEH [IDH3B_Y171]  1.26
15. FTYDPYSEEDP [IL2RB_Y387]  1.46
16. AFDNLYFWDQD [ERBB2_Y1221_YF]  5.12

Tested on: c-Abl (mouse)
Test: as above

In order of falling phosphorylation enrichment:
1. QTEGEYSSLEH [IDH3B_Y171]  1.94
2. SENAFYLSPDI [COL6A3_Y2827]  1.49
3. AFDNLYFWDQD [ERBB2_Y1221_YF]  0.981
4. SGSWSYNTSTE [SELE_Y24_A21S]  0.787
5. EFISENCGEII [EZH2_Y641_Y641N]  0.71
6. TTIVSYRASQP [MKI67_Y1737_K1734I]  0.654
7. FTYDPYSEEDP [IL2RB_Y387]  0.654
8. MCITQYERESQ [PRNP_Y218]  0.648
9. DVVKDCAFVHM [RBM14_Y114_Y114C]  0.645
10. KQRSDYARELE [MYH3_Y1140]  0.625
11. DRIVNYSRASI [ATP7A_Y1459]  0.585
12. IRKDLYANNVL [ACTA2_Y296]  0.581
13. TSFSGYRCHRH [NKAPL_Y94_Y96C_YF]  0.562
14. TRNVRYLTLDI [AKR1C2_Y305_N300T]  0.557
15. AELVRYFMEHH [PTPN11_Y80_Q79R_YF]  0.493
16. VATRWYRSPEP [CDKL5_Y177_L182P]  0.397

Tested on: Fer (mouse)
Test: as above

In order of rising phosphorylation enrichment:
1. KQRSDYARELE [MYH3_Y1140]  0.358
2. VATRWYRSPEP [CDKL5_Y177_L182P]  0.379
3. SGSWSYNTSTE [SELE_Y24_A21S]  0.393
4. DRIVNYSRASI [ATP7A_Y1459]  0.41
5. IRKDLYANNVL [ACTA2_Y296]  0.422
6. AELVRYFMEHH [PTPN11_Y80_Q79R_YF]  0.427
7. TRNVRYLTLDI [AKR1C2_Y305_N300T]  0.429
8. MCITQYERESQ [PRNP_Y218]  0.453
9. TTIVSYRASQP [MKI67_Y1737_K1734I]  0.457
10. TSFSGYRCHRH [NKAPL_Y94_Y96C_YF]  0.464
11. FTYDPYSEEDP [IL2RB_Y387]  0.475
12. EFISENCGEII [EZH2_Y641_Y641N]  0.478
13. DVVKDCAFVHM [RBM14_Y114_Y114C]  0.498
14. SENAFYLSPDI [COL6A3_Y2827]  0.724
15. QTEGEYSSLEH [IDH3B_Y171]  0.836
16. AFDNLYFWDQD [ERBB2_Y1221_YF]  1.68
